Key:
human Rrn3 = molecular target: T1, human Rrn3 (human, UniProt Q9NYV6 1-651, limits assumed); assay: yeast two-hybrid
T1 construct: Two-hybrid fusion partner not described; also called hRrn3

mouse Rrn3 = molecular target: T2, mouse Rrn3 (mouse, UniProt B2RS91 1-656, limits assumed); assay: yeast two-hybrid
T2 construct: Two-hybrid fusion partner not described; also called mRrn3
T2 sequence (B2RS91 whole entry, the tested form may be a part): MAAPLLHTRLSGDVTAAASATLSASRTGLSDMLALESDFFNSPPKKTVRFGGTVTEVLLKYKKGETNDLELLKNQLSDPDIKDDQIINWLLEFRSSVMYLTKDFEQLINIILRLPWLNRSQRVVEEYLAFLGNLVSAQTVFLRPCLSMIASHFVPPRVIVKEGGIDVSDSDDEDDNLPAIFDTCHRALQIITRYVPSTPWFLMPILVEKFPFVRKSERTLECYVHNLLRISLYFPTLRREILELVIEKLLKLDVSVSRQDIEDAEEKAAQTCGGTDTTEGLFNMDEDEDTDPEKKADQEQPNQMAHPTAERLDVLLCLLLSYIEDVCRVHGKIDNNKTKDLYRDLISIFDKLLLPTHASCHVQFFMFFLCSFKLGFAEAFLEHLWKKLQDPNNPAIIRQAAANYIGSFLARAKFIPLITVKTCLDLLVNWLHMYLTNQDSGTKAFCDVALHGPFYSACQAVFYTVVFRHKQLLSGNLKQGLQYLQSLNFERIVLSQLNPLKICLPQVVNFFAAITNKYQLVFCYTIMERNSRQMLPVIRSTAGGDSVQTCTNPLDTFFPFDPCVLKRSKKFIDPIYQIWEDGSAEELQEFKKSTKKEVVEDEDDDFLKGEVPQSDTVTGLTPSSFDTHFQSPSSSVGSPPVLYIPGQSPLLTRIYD

T1 sequence (Q9NYV6 whole entry, the tested form may be a part): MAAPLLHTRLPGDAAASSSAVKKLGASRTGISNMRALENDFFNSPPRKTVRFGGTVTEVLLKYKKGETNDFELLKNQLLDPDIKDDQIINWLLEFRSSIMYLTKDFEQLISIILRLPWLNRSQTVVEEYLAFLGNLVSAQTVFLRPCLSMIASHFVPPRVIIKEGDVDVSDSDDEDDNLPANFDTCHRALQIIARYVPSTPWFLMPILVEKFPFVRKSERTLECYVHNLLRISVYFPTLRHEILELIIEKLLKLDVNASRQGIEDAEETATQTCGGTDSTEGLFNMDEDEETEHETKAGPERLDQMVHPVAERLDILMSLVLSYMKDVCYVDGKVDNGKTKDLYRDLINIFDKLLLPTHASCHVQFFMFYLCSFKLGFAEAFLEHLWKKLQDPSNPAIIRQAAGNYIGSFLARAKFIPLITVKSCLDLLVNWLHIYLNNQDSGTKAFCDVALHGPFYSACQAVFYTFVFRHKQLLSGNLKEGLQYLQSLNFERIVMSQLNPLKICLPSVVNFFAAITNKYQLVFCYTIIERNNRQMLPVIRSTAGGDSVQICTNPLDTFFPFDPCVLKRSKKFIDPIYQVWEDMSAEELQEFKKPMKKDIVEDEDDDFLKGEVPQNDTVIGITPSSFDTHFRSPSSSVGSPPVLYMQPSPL

binding result (human Rrn3): binds
binding result (mouse Rrn3): binds
B1: mouse Rpa43 (43 kDa subunit of RNA polymerase I), wild type (other, UniProt Q78WZ7 1-330, looked up)
chain: MAAGSVESQRSQAASERPVAGQAGVLPCLELPSYAAACALVGSRYSCLVAAPHRRHIALSPRYLSRKRTGIREQLDAELLRYSESLLGVPIAYDNIRVVGELGDIYDDQGHIHLNIEADFVIFCPEPGQTLMGTVNKVSSSHIGCLVHGCFNASIPKPEQMSYEEWQTLEIHVGDELEFDVFRLDSDSAGVFCIRGKLSTTSLQLKHSAVSEDVAETVVEEVVEKTPKKKKKKKDKDTDTCGTVDSVTEVADVTDVTPQEETDIPCSDNVNDFFEEEPKKKKKKKKRHQEDQDPIFQASDSSGYQSDHNKKKKKRKHSEEANFESPKKRQ
notes: also called mRPA43; wild type Rpa43

Reference: patent US20130143318A1 (BOARD OF REGENTS OF THE UNIVERSITY OF OKLAHOMA, published 2013)
